Measurements: paper PMC5118791, “Beyond Antibodies: Development of a Novel Protein Scaffold Based on Human Chaperonin 10” (Scientific Reports, 2016)

Key:
[1] = biological target: the molecule itself; assay: SEC; analytical SE-HPLC, TSK G3000SWXL, 0.1 M phosphate pH 7.8, 0.2 M NaCl, 1 mg/mL, 0.8 mL/min, 25 °C; calibrated with BioRad standards
[2] = biological target: T1, recombinant Factor VIIa (rFVIIa); assay: BLI; Octet Red, Ni-NTA biosensors, 37 °C, 1000 rpm; association 180 sec, dissociation 10 min; 1:1 model, global fit; the legend of Figure 4b says rFVIIa was immobilised; conditions: both partners purified
T1 construct: rFVIIa (NovoSeven RT); no His tag on rFVIIa is stated anywhere; also called NovoSeven RT; source: bought: NovoSeven RT (named for the ELISA)

[3] = biological target: T1, recombinant Factor VIIa (rFVIIa); assay: cell-based or functional assay

T1 sequence (P08709 whole entry): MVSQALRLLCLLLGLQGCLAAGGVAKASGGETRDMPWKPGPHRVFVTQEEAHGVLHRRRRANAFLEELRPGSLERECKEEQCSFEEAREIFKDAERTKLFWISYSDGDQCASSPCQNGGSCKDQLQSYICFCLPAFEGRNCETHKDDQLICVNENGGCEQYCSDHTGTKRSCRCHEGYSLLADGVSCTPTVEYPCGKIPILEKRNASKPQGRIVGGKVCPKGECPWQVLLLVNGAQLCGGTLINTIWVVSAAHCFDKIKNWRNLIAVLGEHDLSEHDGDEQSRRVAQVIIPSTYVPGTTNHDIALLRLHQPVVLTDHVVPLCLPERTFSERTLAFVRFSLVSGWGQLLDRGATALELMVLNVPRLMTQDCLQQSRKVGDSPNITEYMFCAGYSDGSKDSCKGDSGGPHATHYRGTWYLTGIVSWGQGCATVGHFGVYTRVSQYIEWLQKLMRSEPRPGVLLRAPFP

B1: CE76-E5 (hCpn10 scaffold displaying the E-76 peptide with E5 linkers) (designed binder)
chain: AGQAFRKFLPLFDRVLVERSAAETVALCDDPRVDRWYCQFVEGEKSQGKVLQATVVAVGSGSKGKGGEIQPVSVKVGDKVLLPEYGGTKVVLDDKDYFLFRDGDILGKYVD
- stoichiometry N [1]: 7
- Kd [2]: 5.5 nM

B2: CE76-P1 (hCpn10 scaffold displaying the E-76 peptide with P1 linkers) (designed binder)
chain: AGQAFRKFLPLFDRVLVERSAAAPALCDDPRVDRWYCQFVEGAAPGKVLQATVVAVGSGSKGKGGEIQPVSVKVGDKVLLPEYGGTKVVLDDKDYFLFRDGDILGKYVD
- inhibition of FX activation by TF-FVIIa (chromogenic substrate S-2765), IC50 [3]: 1.5 nM
- inhibition of amidolytic activity of FVIIa (Chromozym t-PA) in the presence of TF, IC50 [3]: 6.8 nM
- inhibition of amidolytic activity of FVIIa (Chromozym t-PA) without TF, IC50 [3]: 8.4 nM
- prothrombin time (PT) in citrated human plasma, 0.001-100 μM, fold prolongation over normal clotting time [3]: 7 fold
- stoichiometry N [1]: 7
- Kd [2]: 3 nM
